Consider one protein from FireProtDB (doi:10.1006/jmbi.1993.1336).

The conditions of the series: Aspergillus oryzae (strain ATCC 42149 / RIB 40), GdnHCl, Fluorescence, reversible: yes, whole UniProt chain shown.
Setting [1] is: pH 5, 25 °C, Sodium acetate 0.1 M.

B1: Guanyl-specific ribonuclease T1 wild type, P00651 (protein)
chain: MMYSKLLTLTTLLLPTALALPSLVERACDYTCGSNCYSSSDVSTAQAAGYQLHEDGETVGSNSYPHKYNNYEGFDFSVSSPYYEWPILSSGDVYSGGSPGADRVVFNENNQLAGVITHTGASGNNFVECT
Take B1: under setting [1], the denaturant m value stood at 2.75 kcal/mol/M, the “denaturant midpoint (higher = more stable)” value (“denaturant midpoint” below) worked out at 3.64 M and the unfolding free energy is 10 kcal/mol. In addition, where the note is “pH 8, 10 °C, Tris 0.1 M”, the denaturant m value was found to be 2.63 kcal/mol/M, the “denaturant midpoint” value came to 3.21 M and the unfolding free energy was found to be 8.44 kcal/mol. For the setting “pH 8, 25 °C, Tris 0.1 M”, the denaturant m value is 2.46 kcal/mol/M, the “denaturant midpoint” value was 2.4 M and the unfolding free energy was 5.91 kcal/mol.
